Source: patent US5767233A, “Soluble cleavable substrates of the hepatitis C virus protease” (Schering Corporation, priority 1995, dated 1998)
“Also recorded” adds a separate entry of the source.

Tests used:
Format in all cases: biochemical, Hepatitis C virus (HCV)
[1] = test system: NS3 protease (pBJ1022, NS3 catalytic domain); test: Enhancement by 4A peptides of NS3 cleavage in the in vitro translation assay; conditions: no NS3 protease present
Description: (§1) The plasmid pTS102 encoding the substrate 5A/5B was linearized by digestion with EcoR I and was transcribed using T7 RNA polymerase in vitro. The RNA was translated in presence of ^35 S methionine in rabbit reticulocyte lysates according to the manufacturer's (Promega protocol to produce HCV specific protein. In a 20 μl total reaction mixture containing 10 mM Tris, pH 7.5, 1 mM DTT, 0.5 mM EDTA, and 10% glycerol was placed 2 to 8 μl of ^35 S methionine-labeled translated 5A/5B substrate. The reaction was started with the addition of 10 μl of HCV NS3 protease in solubilization buffer (50 mM Na Phosphate, pH 7.8, 0.3M NaCl, 0.2% Tween 20, 10 mM DTT or BME, 10% glycerol), and incubated at 30° C. for the specified time. Reactions were stopped by adding an equal volume of 2X Laemmli sample buffer (Enprotech Inc.) and heating at 100° C. for 3 minutes. Reaction products were separated by SDS PAGE electrophoresis; gels were fixed, dried and subjected to autoradiography.
(§2) NS4A is able to enhance the NS3 serine protease activity at NS5A/5B site in mammalian cells that transiently coexpress NS3, NS4A, and the various HCV non-structural polyprotein containing downstream cleavage sites. We have studied this enhancement activity in a well defined cell-free biochemical assay, using the partially purified E. coli-expressed pBJ1022 as a source of NS3 protease, and synthetic peptides containing various truncations of NS4A. In our first experiment we used a crude cell lysate of pBJ1022 as the enzyme and NS4A synthetic peptide truncated 33 mer from amino acid 22 to amino acid 54, the carboxy-terminal in vitro translation cleavage reaction.
(§3) To further characterize NS4A enhancement activity additional truncations were made to the NS4A sequence. Truncated peptides were evaluated for their activity in the in vitro translation assay using Ni^2+ chelate column-purified pBJ1022 (NS3 catalytic domain).

[2] = biological target: T1, NS3 protease (pBJ1022, NS3 catalytic domain) (Hepatitis C virus genotype 1a, UniProt P27958); test: as above
T1 construct: made in house; host or cells: E. coli M15 [pREP4]
T1 sequence (P27958 1028-1209): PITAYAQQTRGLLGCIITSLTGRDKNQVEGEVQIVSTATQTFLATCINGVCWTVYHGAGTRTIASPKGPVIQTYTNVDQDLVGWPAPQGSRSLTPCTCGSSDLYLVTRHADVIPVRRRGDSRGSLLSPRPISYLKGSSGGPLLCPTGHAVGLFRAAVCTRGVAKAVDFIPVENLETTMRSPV
Description: as §1, §2, §3

[3] = test system: in vitro-translated 5A/5B substrate; test: Analysis of refolded NS3 protease activity by in vitro translation assay; conditions: in the presence of 4A peptide (33 mer, 2 μM), 30° C., about one hour
Source text: (§4) To detect HCV NS3 protease activity in trans, we have expressed a 40 kD protein containing the NS5A/5B cleavage site in cell-free translation system and used that as the substrate for the enzyme. The substrate protein produces two protein products of apparent molecular weight 12.5 kD (NS 5A') and 27 kD (NS5B') upon cleavage by the HCV NS3 protease.
as §1, with “(Promega)” for “(Promega”, “protease (SEQ ID NO: 5) with an approximately equimolar amount (2 μM) of the carboxyterminal 33 mer cofactor NS4A (SEQ ID NO: 29)” for “protease”, “about one hour.” for “the specified time.”, “Reaction products were separated by SDS PAGE electrophoresis; gels were fixed, dried and subjected to autoradiography.” left out

[4] = test system: in vitro translated 5A/5B substrate (40 kD protein containing the NS5A/5B cleavage site); test: Analysis of NS3 protease activity by in vitro translation assay
Source text: as §4, §1

In the case of “C-terminal 33 amino acid peptide of NS4A: NS4A synthetic peptide truncated 33 mer from amino acid 22 to amino acid 54 (strain HCV-BK) (CVVIVGRIVLSGKPAIIPDREVLYQEFDEMEEC)”, the “cleavage of the substrate by the 4A peptide itself or with vector lysate” value [1] is reported as “did not cleave the substrate”, the “enhancement of NS3 mediated cleavage activity” value ([2]; Ni2+ chelate column-purified pBJ1022 (NS3 catalytic domain)) is reported as “able to enhance the NS3 mediated cleavage activity” and the “enhancement of NS3 catalytic domain activity at the 5A/5B site” value ([2]; crude cell lysate of pBJ1022 as enzyme, 0.01 μM to 1.0 μM peptide, 30 minutes) is reported as “able to enhance the activity of the NS3 catalytic domain in a dose dependent manner”.

B1: HisHIV183: histidine-tagged HCV NS3 protease without solubilizing motif, refolded from E. coli inclusion bodies (protein)
chain: MRGSHHHHHHGSHKARVLAEAMSHGTMAPITAYAQQTRGLLGCIITSLTGRDKNQVEGEVQIVSTATQTFLATCINGVCWTVYHGAGTRTIASPKGPVIQMYTNVDQDLVGWPAPQGSRSLTPCTCGSSDLYLVTRHADVIPVRRRGDSRGSLLSPRPISYLKGSSGGPLLCPAGHAVGLFRAAVCTRGVTKAVDFIPVENLETTMRSPV
In the case of B1, the “trans-cleavage activity of the refolded protease on 5A/5B substrate” value [3] is reported as “active; also recorded: able to cleave 5A/5B substrate in a dose responsive manner”.

B2: pNB182Δ4A: E. coli-expressed fusion of NS3 catalytic domain (182aa)-G-NS4A(4-54) with hydrophilic tail, named by its plasmid (protein)
chain: MRGSHHHHHHTDPPITAYAQQTRGLLGCIITSLTGRDKNQVEGEVQIVSTATQTFLATCINGVCWTVYHGAGTRTIASPKGPVIQMYTNVDQDLVGWPAPQGSRSLTPCTCGSSDLYLVTRHADVIPVRRRGDSRGSLLSPRPISYLKGSSGGPLLCPAGHAVGLFRAAVCTRGVTKAVDFIPVENLETTMRSPGVLVGGVLAALAAYCLSTGCVVIVGRIVLSGKPAIIPDREVLYQEFDEMEECRKKKRRKLN
In the case of B2, the “time at which 5A and 5B cleavage products began to appear” value ([4]; 30° C., soluble lysate at 1 μl per 20 μl reaction volume) is reported as 1 min, the “amount of lysate at which cleavage reached a maximum” value ([4]; 30 minutes incubation) is reported as 1 µL and the “least amount of cell lysate at which 5A and 5B cleavage products were detected” value ([4]; 30 minutes incubation) is reported as 0.125 µL. For the same molecule, the “activity of crude soluble lysate compared with pBJ1022 lysate” value ([4]; crude soluble lysate, 30 minutes incubation) was “much more active” and the “cleavage of translated 5A/5B substrate by imidazole-eluted fractions” value ([4]; fractions from Ni-NTA column purification) was “all able to cleave the translated 5A/5B Substrate”.

B3: pBJ1022: E. coli-expressed His-tagged NS3 protease catalytic domain with hydrophilic tail, named by its plasmid (protein)
chain: MRGSHHHHHHTDPPITAYAQQTRGLLGCIITSLTGRDKNQVEGEVQIVSTATQTFLATCINGVCWTVYHGAGTRTIASPKGPVIQMYTNVDQDLVGWPAPQGSRSLTPCTCGSSDLYLVTRHADVIPVRRRGDSRGSLLSPRPISYLKGSSGGPLLCPAGHAVGLFRAAVCTRGVTKAVDFIPVENLETTMRSPVRKKKRR
In the case of B3, the “HCV protease activity of imidazole-eluted fractions” value ([4]; POROS Ni2+ chelate purification, NS4A amino acids 22 to 54 peptide added at 1 μM) is reported as “active”, the “cleavage activity by the protease alone, without the 4A peptide” value ([4]; crude cell lysate, incubation time of 30 minutes) is reported as “relatively low cleavage activity” and the “cleavage of 5A/5B substrate by crude soluble lysate” value ([4]; two hour assay at 30° C., lysate at 3, 6 and 10 μl, SDS PAGE) is reported as “able to cleave 5A/5B substrate in a dose responsive manner”.
